We go through one substance from patent US7132258.

In this assay the target is Gal4 DBD fusion of the LBD of hRARα (human). Kind of assay: cell-based or functional assay.

In turn, “full-length RAC3 expressed from pCMX.F.RAC3 (FLAG and HA epitope at the N-terminus) (from UniProt Q9Y6Q9 2-1424)” yielded a ligand-dependent transcriptional activation by Gal4 DBD fusion of RAR on a Gal4-dependent luciferase reporter, A549 cells, 100 nM atRA of 2 fold.
